Reference: article PMC8927147, “Global profiling of regulatory elements in the histone benzoylation pathway” (Nature Communications, 2022)
Ends that are not written are not given here. * marks the point of attachment. Bz = O=C(c1ccccc1)*

What was measured:
Assay in all cases: crystal structure; protein (15 mg/ml) mixed with peptide at 1:5 molar ratio; sitting-drop vapor diffusion at 25 °C
Conditions in all cases: both partners purified
Taf14_(YEATS) = target: T1, Taf14_(YEATS) (S. cerevisiae, UniProt P35189 2-137)
T1 construct: Taf14, S. cerevisiae, YEATS domain, residues 2-137; also called Taf14_(2-137); YEATS domain of Taf14; source: E. coli Rosetta, purified (Ni-NTA, on-bead ULP1 digestion, SEC); not shown: 6*His-Sumo, N-terminal, cleaved
T1 sequence (looked up): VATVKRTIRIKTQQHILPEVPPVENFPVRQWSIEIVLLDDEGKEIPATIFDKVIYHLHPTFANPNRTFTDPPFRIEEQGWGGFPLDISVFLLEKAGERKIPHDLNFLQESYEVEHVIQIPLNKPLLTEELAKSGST

Hst2_(8-294) = target: T2, Hst2_(8-294) (S. cerevisiae, UniProt P53686 8-294)
T2 construct: Construct of the crystal structures; source: E. coli Rosetta, purified (Ni-NTA, on-bead ULP1 digestion, SEC); not shown: 6*His-Sumo, N-terminal, cleaved

Sth1BD = target: T3, Sth1BD (S. cerevisiae, UniProt P32597 1248-1359)
T3 construct: also called Bromodomain from Sth1; source: E. coli Rosetta, purified (Ni-NTA, on-bead ULP1 digestion, SEC); not shown: 6*His-Sumo, N-terminal, cleaved
T3 sequence (looked up): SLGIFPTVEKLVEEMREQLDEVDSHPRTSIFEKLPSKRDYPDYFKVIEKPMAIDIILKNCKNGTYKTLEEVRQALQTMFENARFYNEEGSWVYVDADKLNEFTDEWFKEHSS

Sas5_(YEATS) = target: T4, Sas5_(YEATS) (S. cerevisiae, UniProt Q99314 2-139)
T4 construct: also called YEATS domain of Sas5; source: E. coli Rosetta, purified (Ni-NTA, on-bead ULP1 digestion, SEC); not shown: 6*His-Sumo, N-terminal, cleaved
T4 sequence (looked up): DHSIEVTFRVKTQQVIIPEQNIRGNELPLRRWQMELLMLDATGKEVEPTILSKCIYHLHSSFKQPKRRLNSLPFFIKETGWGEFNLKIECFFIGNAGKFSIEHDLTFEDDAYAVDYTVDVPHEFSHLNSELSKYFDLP

T2 sequence (P53686 8-294): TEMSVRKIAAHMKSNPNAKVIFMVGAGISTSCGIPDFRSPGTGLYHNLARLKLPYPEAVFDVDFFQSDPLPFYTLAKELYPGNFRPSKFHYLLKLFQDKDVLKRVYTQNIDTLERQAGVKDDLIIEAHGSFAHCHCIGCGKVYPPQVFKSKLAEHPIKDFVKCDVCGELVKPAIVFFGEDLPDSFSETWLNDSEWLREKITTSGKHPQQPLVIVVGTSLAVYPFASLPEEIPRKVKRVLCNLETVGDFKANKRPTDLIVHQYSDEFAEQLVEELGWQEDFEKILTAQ

B1: H3_(5-13)K9bz (peptide)
peptide: Ac-QTARK(Bz)STGG
notes: histone H3, residues 5-13; Peptide crystallised with Taf14_(2-137); also called H3K9bz (Ac-QTARKbzSTGG); source: synthetic peptide
binding result (Taf14_(YEATS)): binds

B2: H3_(5-14)K9bz (peptide)
peptide: QTARK(Bz)STGGK
notes: histone H3, residues 5-14; also called benzoylated H3 peptide; source: synthetic peptide
binding result (Hst2_(8-294)): binds

B3: H3K14bz(TARKSTGGKbzAPRKQLASY) (peptide)
peptide: TARKSTGGK(Bz)APRKQLASY
notes: histone H3, residues 6-22; C-terminal tyrosine (Y23) that is not in H3 at this position; also called H3K14bz peptide of the Sth1BD crystal; source: synthetic peptide
binding result (Sth1BD): binds

B4: H3_(18-37)K27bz (peptide)
peptide: KQLASKAARK(Bz)SAPSTGGVKY
notes: histone H3, residues K18 to K36; extra tyrosine residue (Y37) at the C-terminus designed for concentration determination by UV spectrometry; source: synthetic peptide
binding result (Sas5_(YEATS)): binds
